As usually defined, the stoichiometry N is the number of molecules, sites or subunits per partner or assembly.

This is an account of results in publication doi:10.1101/2021.02.24.432666 (bioRxiv, 2021).

Several values for one entry are separate records, joined by “and”; a condition that tells them apart may be missing. Identical values can stand only once. Like-named read-outs stand apart in the source and are kept apart here.

Data set [1] deals with the molecule itself. Kind of data set: cryo-EM structure.
Data set [2] deals with the molecule itself. Kind of data set: cryo-EM structure. The source holds these as a separate data set.
Data set [3] concerns the molecule itself. Kind of data set: SEC + other: negative-staining electron microscopy.
Data set [4] concerns the molecule itself. Kind of data set: negative-staining electron microscopy.

B1: yeast TRiC subunit CCT1 (natural protein)
chain: not shown
In the case of B1, the “stoichiometry N” value in the data set “cryo-EM structure [1]” was 9 subunit pairs; in the data set “cryo-EM structure [2]”, 8 subunits per ring (double ring).

B2: yeast TRiC subunit CCT7 (natural protein, UniProt P42943 1-550, looked up)
chain: MNFGSQTPTIVVLKEGTDASQGKGQIISNINACVAVQEALKPTLGPLGSDILIVTSNQKTTISNDGATILKLLDVVHPAAKTLVDISRAQDAEVGDGTTSVTILAGELMKEAKPFLEEGISSHLIMKGYRKAVSLAVEKINELAVDITSEKSSGRELLERCARTAMSSKLIHNNADFFVKMCVDAVLSLDRNDLDDKLIGIKKIPGGAMEESLFINGVAFKKTFSYAGFEQQPKKFNNPKILSLNVELELKAEKDNAEVRVEHVEDYQAIVDAEWQLIFEKLRQVEETGANIVLSKLPIGDLATQFFADRNIFCAGRVSADDMNRVIQAVGGSIQSTTSDIKPEHLGTCALFEEMQIGSERYNLFQGCPQAKTCTLLLRGGAEQVIAEVERSLHDAIMIVKRALQNKLIVAGGGATEMEVSKCLRDYSKTIAGKQQMIINAFAKALEVIPRQLCENAGFDAIEILNKLRLAHSKGEKWYGVVFETENIGDNFAKFVWEPALVKINALNSATEATNLILSVDETITNKGSESANAGMMPPQGAGRGRGMPM
For the protein B2, the binding result in data set [3] is recorded as “binds”.

B3: yeast TRiC subunit CCT6 (natural protein)
chain: not shown
As for B3, the “stoichiometry N” value in “cryo-EM structure [1]” was 8 subunits per ring and 9 subunits per ring; in the data set “cryo-EM structure [2]” it was 8 subunits per ring (double ring) and 9 subunits per ring (double ring).

B4: yeast TRiC subunit CCT8 (natural protein, UniProt P47079 1-568, looked up)
chain: MSLRLPQNPNAGLFKQGYNSYSNADGQIIKSIAAIRELHQMCLTSMGPCGRNKIIVNHLGKIIITNDAATMLRELDIVHPAVKVLVMATEQQKIDMGDGTNLVMILAGELLNVSEKLISMGLSAVEIIQGYNMARKFTLKELDEMVVGEITDKNDKNELLKMIKPVISSKKYGSEDILSELVSEAVSHVLPVAQQAGEIPYFNVDSIRVVKIMGGSLSNSTVIKGMVFNREPEGHVKSLSEDKKHKVAVFTCPLDIANTETKGTVLLHNAQEMLDFSKGEEKQIDAMMKEIADMGVECIVAGAGVGELALHYLNRYGILVLKVPSKFELRRLCRVCGATPLPRLGAPTPEELGLVETVKTMEIGGDRVTVFKQEQGEISRTSTIILRGATQNNLDDIERAIDDGVAAVKGLMKPSGGKLLPGAGATEIELISRITKYGERTPGLLQLAIKQFAVAFEVVPRTLAETAGLDVNEVLPNLYAAHNVTEPGAVKTDHLYKGVDIDGESDEGVKDIREENIYDMLATKKFAINVATEAATTVLSIDQIIMAKKAGGPRAPQGPRPGNWDQED
Regarding B4, the binding result in data set [3] is “binds”.

B5: yeast TRiC subunit CCT3 (natural protein, UniProt P39077 1-534, looked up)
chain: MQAPVVFMNASQERTTGRQAQISNITAAKAVADVIRTCLGPKAMLKMLLDPMGGLVLTNDGHAILREIDVAHPAAKSMLELSRTQDEEVGDGTTTVIILAGEILAQCAPYLIEKNIHPVIIIQALKKALTDALEVIKQVSKPVDVENDAAMKKLIQASIGTKYVIHWSEKMCELALDAVKTVRKDLGQTVEGEPNFEIDIKRYVRVEKIPGGDVLDSRVLKGVLLNKDVVHPKMSRHIENPRVVLLDCPLEYKKGESQTNIEIEKEEDWNRILQIEEEQVQLMCEQILAVRPTLVITEKGVSDLAQHYLLKGGCSVLRRVKKSDNNRIARVTGATIVNRVEDLKESDVGTNCGLFKVEMIGDEYFSFLDNCKEPKACTIMLRGGSKDILNEIDRNLQDAMAVARNVMLSPSLSPGGGATEMAVSVKLAEKAKQLEGIQQWPYQAVADAMECIPRTLIQNAGGDPIRLLSQLRAKHAQGNFTTGIDGDKGKIVDMVSYGIWEPEVIKQQSVKTAIESACLLLRVDDIVSGVRKQE
On to B5, for which the binding result in data set [3] was “binds”.

B6: yeast TRiC subunit CCT2 (natural protein)
chain: MSVQIFGDQVTEERAENARLSAFVGAIAVGDLVKSTLGPKGMDKLLQSASSNTCMVTNDGATILKSIPLDNPAAKVLVNISKVQDDEVGDGTTSVTVLSAELLREAEKLIDQSKIHPQTIIEGYRLASAAALDALTKAAVDNSHDKTMFREDLIHIAKTTLSSKILSQDKDHFAELATNAILRLKGSTNLEHIQIIKILGGKLSDSFLDEGFILAKKFGNNQPKRIENAKILIANTTLDTDKVKIFGTKFKVDSTAKLAQLEKAEREKMKNKIAKISKFGINTFINRQLIYDYPEQLFTDLGINSIEHADFEGVERLALVTGGEVVSTFDEPSKCKLGECDVIEEIMLGEQPFLKFSGCKAGEACTIVLRGATDQTLDEAERSLHDALSVLSQTTKETRTVLGGGCAEMVMSKAVDTEAQNIDGKKSLAVEAFARALRQLPTILADNAGFDSSELVSKLRSSIYNGISTSGLDLNNGTIADMRQLGIVESYKLKRAVVSSASEAAEVLLRVDNIIRARPRTANRQHM
On to B6, for which the “stoichiometry N” value in “cryo-EM structure [2]” was 8 subunits per ring (double ring).

B7: yeast TRiC subunit CCT4 (natural protein, UniProt P39078 1-528, looked up)
chain: MSAKVPSNATFKNKEKPQEVRKANIIAARSVADAIRTSLGPKGMDKMIKTSRGEIIISNDGHTILKQMAILHPVARMLVEVSAAQDSEAGDGTTSVVILTGALLGAAERLLNKGIHPTIIADSFQSAAKRSVDILLEMCHKVSLSDREQLVRAASTSLSSKIVSQYSSFLAPLAVDSVLKISDENSKNVDLNDIRLVKKVGGTIDDTEMIDGVVLTQTAIKSAGGPTRKEKAKIGLIQFQISPPKPDTENNIIVNDYRQMDKILKEERAYLLNICKKIKKAKCNVLLIQKSILRDAVNDLALHFLSKLNIMVVKDIEREEIEFLSKGLGCKPIADIELFTEDRLGSADLVEEIDSDGSKIVRVTGIRNNNARPTVSVVIRGANNMIIDETERSLHDALCVIRCLVKERGLIAGGGAPEIEISRRLSKEARSMEGVQAFIWQEFASALEVIPTTLAENAGLNSIKVVTELRSKHENGELNDGISVRRSGTTNTYEEHILQPVLVSTSAITLASECVKSILRIDDIAFSR
Turning to B7, the binding result in data set [3] was “binds”.

B8: yeast CCT5 with the N-terminal 24 amino acids truncated (CCT5^ΔNT) (domain or fragment, UniProt P40413 25-562, looked up)
chain: MGRPFIIVKDQGNKKRQHGLEAKKSHILAARSVASIIKTSLGPRGLDKILISPDGEITITNDGATILSQMELDNEIAKLLVQLSKSQDDEIGDGTTGVVVLASALLDQALELIQKGIHPIKIANGFDEAAKLAISKLEETCDDISASNDELFRDFLLRAAKTSLGSKIVSKDHDRFAEMAVEAVINVMDKDRKDVDFDLIKMQGRVGGSISDSKLINGVILDKDFSHPQMPKCVLPKEGSDGVKLAILTCPFEPPKPKTKHKLDISSVEEYQKLQTYEQDKFKEMIDDVKKAGADVVICQWGFDDEANHLLLQNDLPAVRWVGGQELEHIAISTNGRIVPRFQDLSKDKLGTCSRIYEQEFGTTKDRMLIIEQSKETKTVTCFVRGSNKMIVDEAERALHDSLCVVRNLVKDSRVVYGGGAAEVTMSLAVSEEADKQRGIDQYAFRGFAQALDTIPMTLAENSGLDPIGTLSTLKSKQLKEKISNIGVDCLGYGSNDMKELFVVDPFIGKKQQILLATQLCRMILKIDNVIISGKDEY
As to B8, the binding result in data set [4] is on record as “binds”.
